# Measurements from patent publication US20230212587A1, “Mutant Hydroxyphenylpyruvate Dioxygenase Polypeptide, Encoding Gene Thereof and Use Therefor” (Beijing Dabeinong Biotechnology Co., Ltd., priority 2019, published 2023).
# B1: AsHPPDm-F372A-02: Avena sativa HPPD mutant F372A, SEQ ID NO: 4; gene SEQ ID NO: 6 (protein)
# chain: MPPTPATATGAAAAAVTPEHAARSFPRVVRVNPRSDRFPVLSFHHVELWCADAASAAGRFSFALGAPLAARSDLSTGNSAHASLLLRSGALAFLFTAPYAPPPQEAATAAATASIPSFSADAARTFAAAHGLAVRSVGVRVADAAEAFRVSVAGGARPAFAPADLGHGFGLAEVELYGDVVLRFVSYPDETDLPFLPGFERVSSPGAVDYGLTRFDHVVGNVPEMAPVIDYMKGFLGFHEFAEFTAEDVGTTESGLNSVVLANNSEAVLLPLNEPVHGTKRRSQIQTYLEYHGGPGVQHIALASNDVLRTLREMRARTPMGGFEFMAPPQAKYYEGVRRIAGDVLSEEQIKECQELGVLVDRDDQGVLLQIATKPVGDRPTFFLEMIQRIGCMEKDEVGQEYQKGGCGGFGKGNFSELFKSIEDYEKSLEVKQSVVAQKS
# modifications: AsHPPDm-F372A Amido Acid Sequence
# B2: PfHPPDm-F372A-02: Pseudomonas fluorescens HPPD mutant F372A, SEQ ID NO: 30 (protein)
# chain: MADLYENPMGLMGFEFIEFASPTPGTLEPIFEIMGFTKVATHRSKNVHLYRQGEINLILNNEPNSIASYFAAEHGPSVCGMAFRVKDSQKAYNRALELGAQPIHIDTGPMELNLPAIKGIGGAPLYLIDRFGEGSSIYDIDFVYLEGVERNPVGAGLKVIDHLTHNVYRGRMVYWANFYEKLFNFREARYFDIKGEYTGLTSKAMSAPDGMIRIPLNEESSKGAGQIEEFLMQFNGEGIQHVAFLTDDLVKTWDALKKIGMRFMTAPPDTYYEMLEGRLPDHGEPVDQLQARGILLDGSSVEGDKRLLLQIASETLMGPVFFEFIQRKGDDGFGEGNFKALFESIERDQVRRGVLTAD
# modifications: PfHPPDm-F372A Amino Acid Sequence
# B3: AsHPPDm-F372A-A110: Avena sativa HPPD with F372A and deletion of alanine at position 110, SEQ ID NO: 412 (protein)
# chain: MPPTPATATGAAAAAVTPEHAARSFPRVVRVNPRSDRFPVLSFHHVELWCADAASAAGRFSFALGAPLAARSDLSTGNSAHASLLLRSGALAFLFTAPYAPPPQEAATAATASIPSFSADAARTFAAAHGLAVRSVGVRVADAAEAFRVSVAGGARPAFAPADLGHGFGLAEVELYGDVVLRFVSYPDETDLPFLPGFERVSSPGAVDYGLTRFDHVVGNVPEMAPVIDYMKGFLGFHEFAEFTAEDVGTTESGLNSVVLANNSEAVLLPLNEPVHGTKRRSQIQTYLEYHGGPGVQHIALASNDVLRTLREMRARTPMGGFEFMAPPQAKYYEGVRRIAGDVLSEEQIKECQELGVLVDRDDQGVLLQIATKPVGDRPTFFLEMIQRIGCMEKDEVGQEYQKGGCGGFGKGNFSELFKSIEDYEKSLEVKQSVVAQKS
# modifications: AsHPPDm-F372A-A110 Amino Acid Sequence
# B4: ZmHPPDm-F372A-02: Zea mays HPPD mutant F372A, SEQ ID NO: 20 (protein)
# chain: MPPTPTAAAAGAAVAAASAAEQAAFRLVGHRNFVRFNPRSDRFHTLAFHHVELWCADAASAAGRFSFGLGAPLAARSDLSTGNSAHASLLLRSGSLSFLFTAPYAHGADAATAALPSFSAAAARRFAADHGLAVRAVALRVADAEEAFRTSVAAGARPAFGPVDLGRGFRLAEVELYGDVVLRYVSYPDGAAGEPFLPGFEGVASPGAADYGLSRFDHIVGNVPELAPAAAYFAGFTGFHEFAEFTTEDVGTAESGLNSMVLANNSENVLLPLNEPVHGTKRRSQIQTFLDHHGGPGVQHMALASDDVLRTLREMQARSAMGGFEFMAPPTSDYYDGVRRRAGDVLTEAQIKECQELGVLVDRDDQGVLLQIAPKPVGDRPTLFLEIIQRIGCMERDEKGQEYQKGGCGGFGKGNFSQLFKSIEDYEKSLEAMQAAAAATAQGS
# modifications: ZmHPPDm-F372A Amino Acid Sequence
# How the values were obtained:
# [1] = system: Arabidopsis thaliana T1 plants; test: Topramezone tolerance of transgenic Arabidopsis thaliana T1 plants (pesticide damage grade by bleached leaf area, score, resistance evaluation); format: in vivo; details: for Classification and statistics of the grade of pesticide damage Grade 0 / Classification and statistics of the grade of pesticide damage Grade 1 / Classification and statistics of the grade of pesticide damage Grade 2 / Classification and statistics of the grade of pesticide damage Grade 3 / Classification and statistics of pesticide damage grade Grade 0 / Classification and statistics of pesticide damage grade Grade 1 / Classification and statistics of pesticide damage grade Grade 2 / Classification and statistics of pesticide damage grade Grade 3: number of plants (of 16) in this grade; for Classification and statistics of the grade of pesticide damage Grade 0 / Classification and statistics of the grade of pesticide damage Grade 1 / Classification and statistics of the grade of pesticide damage Grade 2 / Classification and statistics of the grade of pesticide damage Grade 3 / Scores / Resistance evaluation / Classification and statistics of pesticide damage grade Grade 0 / Classification and statistics of pesticide damage grade Grade 1 / Classification and statistics of pesticide damage grade Grade 2 / Classification and statistics of pesticide damage grade Grade 3: 7 DAT; for Scores: score for pesticide damage 0-100; for Grade 0 (number of plants) / Grade 1 (number of plants) / Grade 2 (number of plants) / Grade 3 (number of plants) / Resistance Grade / score: mutation combination, Table 8
# In short: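 Herbicide tolerance was judged per plant on a bleaching scale (grade 0 no bleaching to grade 3 fully bleached) 7 DAT. Topramezone doses were 0, 25, 50 and 100 g ai/ha on 18-day-old T1 and wild-type plants.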
# rice T1 plants = test: Herbicide tolerance of transgenic rice T1 plants to topramezone; format: in vivo; details: topramezone 50 and 100 g ai/ha, 7 DAT, compared to wild-type
# Source text: The Arabidopsisthaliana T1 plants into which the AsHPPDm-F372A-02 nucleotide sequence was introduced, Arabidopsis thaliana T1 plants into which the AsHPPD-02 nucleotide sequence was introduced and wild-type Arabidopsisthaliana plants (18 days after sowing) were sprayed with topramezone at four different concentrations, i.e., 25 g ai/ha (one-fold field concentration, 1×), 50 g ai/ha (two-fold field concentration, 2×), 100 g ai/ha (four-fold field concentration, 4×) and 0 g ai/ha (water, 0×) to determine the tolerance of Arabidopsisthaliana to the herbicide. The degree of damage caused by the herbicide was measured for each plant according to the proportion of bleached leaf area (the proportion of bleached leaf area=bleached leaf area/total leaf area×100%) 7 days after spraying (7 DAT): the case where there is basically no bleached phenotype is defined as grade 0, the case where the proportion of bleached leaf area is less than 50% is defined as grade 1,the case where the proportion of bleached leaf area is more than 50% is defined as grade 2, and the case where the proportion of bleached leaf area is 100% grade is defined as grade 3.
# The rice T1 plants into which the AsHPPDm-F372A-02 nucleotide sequence was introduced, rice T1 plants into which the AsHPPDm-F372A-A110 nucleotide sequence was introduced, rice T1 plants into which the ZmHPPDm-F372A-02 nucleotide sequence was introduced, rice T1 plants into which the PfHPPDm-F372A-02 nucleotide sequence was introduced and wild-type rice plants (V3-V4 at seedling stage) were sprayed with topramezone at two different concentrations respectively, i.e. 50 g ai/ha (2-fold field concentration, 2 ×) and 100 g ai/ha (4-fold field concentration, 4 ×) to detect the herbicide tolerance of rice plants. According to the method in point 6 of Example 1, after 7 days of spraying (7 DAT), the damage degree of each plant by the herbicide was statistically analyzed, and the scoring and resistance evaluation were carried out accordingly. The rice T1 plants into which AsHPPDm-F372A-02 nucleotide sequence was introduced were of two strains in total (S12 and S13), rice T1 plants into which AsHPPDm-F372A-A1 10 nucleotide sequence was introduced were of two strains in total (S14 and S15), rice T1 plants into which ZmHPPDm-F372A-02 nucleotide sequence was introduced were of two strains in total (S16 and S17), rice T1 plants into which PfHPPDm-F372A-02 nucleotide sequence was introduced were of two strains in total (S18 and S19), and the wild-type rice plants were of one strain in total (CK2); and 8 plants were selected from each strain and tested.
# [2] = HPPDs from different species, topramezone 25 g ai/ha (1x)
# [3] = HPPDs from different species, topramezone 100 g ai/ha (4x)
Molecule,Grade 0 (number of plants) ([1]; topramezone 25 g ai/ha),Grade 1 (number of plants) ([1]; topramezone 25 g ai/ha),Grade 2 (number of plants) ([1]; topramezone 25 g ai/ha),Grade 3 (number of plants) ([1]; topramezone 25 g ai/ha),Resistance Grade ([1]; topramezone 25 g ai/ha),score ([1]; topramezone 25 g ai/ha),Grade 0 (number of plants) ([1]; topramezone 100 g ai/ha),Grade 1 (number of plants) ([1]; topramezone 100 g ai/ha),Grade 2 (number of plants) ([1]; topramezone 100 g ai/ha),Grade 3 (number of plants) ([1]; topramezone 100 g ai/ha),Resistance Grade ([1]; topramezone 100 g ai/ha),score ([1]; topramezone 100 g ai/ha),"tolerance to topramezone, in words (rice T1 plants)","Classification and statistics of pesticide damage grade Grade 0 [1, 2]","Classification and statistics of pesticide damage grade Grade 1 [1, 2]","Classification and statistics of pesticide damage grade Grade 2 [1, 2]","Classification and statistics of pesticide damage grade Grade 3 [1, 2]","Classification and statistics of pesticide damage grade Grade 0 [1, 3]","Classification and statistics of pesticide damage grade Grade 1 [1, 3]","Classification and statistics of pesticide damage grade Grade 2 [1, 3]",also measured
B1,20,0,0,0,Highly resistant,0,20,0,0,0,Highly resistant,0,higher tolerance,,,,,,,,"resistance evaluation stated in the text ([1]; Arabidopsis thaliana T1 plants sprayed with topramezone, all tested concentrations): highly resistant (highly resistant plants (scores 0-15)); Classification and statistics of the grade of pesticide damage Grade 0 ([1]; topramezone 25 g ai/ha (1x)): 16; Classification and statistics of the grade of pesticide damage Grade 1 ([1]; topramezone 25 g ai/ha (1x)): 0; Classification and statistics of the grade of pesticide damage Grade 2 ([1]; topramezone 25 g ai/ha (1x)): 0; Classification and statistics of the grade of pesticide damage Grade 3 ([1]; topramezone 25 g ai/ha (1x)): 0; Classification and statistics of the grade of pesticide damage Grade 0 ([1]; topramezone 50 g ai/ha (2x)): 16; Classification and statistics of the grade of pesticide damage Grade 1 ([1]; topramezone 50 g ai/ha (2x)): 0; Classification and statistics of the grade of pesticide damage Grade 2 ([1]; topramezone 50 g ai/ha (2x)): 0; Classification and statistics of the grade of pesticide damage Grade 3 ([1]; topramezone 50 g ai/ha (2x)): 0; Classification and statistics of the grade of pesticide damage Grade 0 ([1]; topramezone 100 g ai/ha (4x)): 16; Classification and statistics of the grade of pesticide damage Grade 1 ([1]; topramezone 100 g ai/ha (4x)): 0; Classification and statistics of the grade of pesticide damage Grade 2 ([1]; topramezone 100 g ai/ha (4x)): 0; Classification and statistics of the grade of pesticide damage Grade 3 ([1]; topramezone 100 g ai/ha (4x)): 0; Scores ([1]; topramezone 25 g ai/ha (1x)): 0; Scores ([1]; topramezone 50 g ai/ha (2x)): 0; Scores ([1]; topramezone 100 g ai/ha (4x)): 0; Resistance evaluation ([1]; topramezone 25 g ai/ha (1x)): highly resistant (highly resistant plants (scores 0-15)); Resistance evaluation ([1]; topramezone 50 g ai/ha (2x)): highly resistant (highly resistant plants (scores 0-15)); Resistance evaluation ([1]; topramezone 100 g ai/ha (4x)): highly resistant (highly resistant plants (scores 0-15))"
B2,20,0,0,0,Highly resistant,0,16,4,0,0,Highly resistant,7,higher tolerance,16,0,0,0,12,4,0,"Classification and statistics of pesticide damage grade Grade 3 [1, 3]: 0; Scores [1, 2]: 0; Scores [1, 3]: 8; Resistance evaluation [1, 2]: highly resistant (highly resistant plants (scores 0-15)); Resistance evaluation [1, 3]: highly resistant (highly resistant plants (scores 0-15))"
B3,20,0,0,0,Highly resistant,0,20,0,0,0,Highly resistant,0,higher tolerance,,,,,,,,
B4,,,,,,,,,,,,,higher tolerance,16,0,0,0,4,12,0,"Classification and statistics of pesticide damage grade Grade 3 [1, 3]: 0; Scores [1, 2]: 0; Scores [1, 3]: 25; Resistance evaluation [1, 2]: highly resistant (highly resistant plants (scores 0-15)); Resistance evaluation [1, 3]: moderately resistant (moderately resistant plants (scores 16-33))"
